# Source: paper PMC10148881, “Recognition of an Ala-rich C-degron by the E3 ligase Pirh2” (Nature Communications, 2023)
# B1: WT Pirh2 S155D (protein)
# chain: MAATAREDGASGQERGQRGCEHYDRGCLLKAPCCDKLYTCRLCHDNNEDHQLDRFKVKEVQCINCEKIQHAQQTCEECSTLFGEYYCDICHLFDKDKKQYHCENCGICRIGPKEDFFHCLKCNLCLAMNLQGRHKCIENVSRQNCPICLEDIHTDRVVAHVLPCGHLLHRTCYEEMLKEGYRCPLCMHS
# B2: WT Pirh2 D94A (protein)
# chain: MAATAREDGASGQERGQRGCEHYDRGCLLKAPCCDKLYTCRLCHDNNEDHQLDRFKVKEVQCINCEKIQHAQQTCEECSTLFGEYYCDICHLFAKDKKQYHCENCGICRIGPKEDFFHCLKCNLCLAMNLQGRHKCIENVSRQNCPICLEDIHTSRVVAHVLPCGHLLHRTCYEEMLKEGYRCPLCMHS
# B3: WT Pirh2 Q99A (protein)
# chain: MAATAREDGASGQERGQRGCEHYDRGCLLKAPCCDKLYTCRLCHDNNEDHQLDRFKVKEVQCINCEKIQHAQQTCEECSTLFGEYYCDICHLFDKDKKAYHCENCGICRIGPKEDFFHCLKCNLCLAMNLQGRHKCIENVSRQNCPICLEDIHTSRVVAHVLPCGHLLHRTCYEEMLKEGYRCPLCMHS
# B4: WT Pirh2 R54A (protein)
# chain: MAATAREDGASGQERGQRGCEHYDRGCLLKAPCCDKLYTCRLCHDNNEDHQLDAFKVKEVQCINCEKIQHAQQTCEECSTLFGEYYCDICHLFDKDKKQYHCENCGICRIGPKEDFFHCLKCNLCLAMNLQGRHKCIENVSRQNCPICLEDIHTSRVVAHVLPCGHLLHRTCYEEMLKEGYRCPLCMHS
# B5: WT Pirh2 A159D (protein)
# chain: MAATAREDGASGQERGQRGCEHYDRGCLLKAPCCDKLYTCRLCHDNNEDHQLDRFKVKEVQCINCEKIQHAQQTCEECSTLFGEYYCDICHLFDKDKKQYHCENCGICRIGPKEDFFHCLKCNLCLAMNLQGRHKCIENVSRQNCPICLEDIHTSRVVDHVLPCGHLLHRTCYEEMLKEGYRCPLCMHS
# Assays:
# [1] = target: T1, Ala6/C-degron peptide (sequence: …); assay: ITC; conditions: chain shown with the change
# T1 chain: YKTSAAAAAA
# [2] = target: Pirh2 D94A (human) (UniProt Q96PM5); assay: ITC; peptides (0.6–1.0 mM) titrated into the cell with 180–220 μM protein at 16 °C; 20 mM Tris-HCl pH 7.5, 150 mM NaCl, 10 μM Zn2+; one-site binding model
# [3] = target: Pirh2 Q99A (human) (UniProt Q96PM5); assay: as above
# [4] = target: Pirh2 R54A (human) (UniProt Q96PM5); assay: as above
# [5] = target: Pirh2 with Ala159 substituted with aspartic acid (human) (UniProt Q96PM5); assay: as above
# [6] = target: Pirh2 with Ser155 substituted with aspartic acid (human) (UniProt Q96PM5); assay: as above
Binder,Kd [1],further results
B1,4.5 µM,
B2,3 µM,
B3,3.5 µM,
B4,> 100 µM,
B5,7.1 µM,
YKTSAAAAAA [Ala6/C-degron peptide (sequence: …)],,fold decrease in binding affinity against wild-type Pirh2 [2]: > 6 fold; fold decrease in binding affinity against wild-type Pirh2 [3]: > 6 fold; fold decrease in binding affinity against wild-type Pirh2 [4]: > 6 fold; fold decrease in binding affinity against wild-type Pirh2 [5]: 14 fold; fold decrease in binding affinity against wild-type Pirh2 [6]: 9 fold
